Laboratory results published in PMC7553779 (eLife, 2020).

T1: human acid-sensing ion channel 1a (hASIC1a), full-length, wild type (human, UniProt P78348-2 1-528)
T1 sequence (looked up): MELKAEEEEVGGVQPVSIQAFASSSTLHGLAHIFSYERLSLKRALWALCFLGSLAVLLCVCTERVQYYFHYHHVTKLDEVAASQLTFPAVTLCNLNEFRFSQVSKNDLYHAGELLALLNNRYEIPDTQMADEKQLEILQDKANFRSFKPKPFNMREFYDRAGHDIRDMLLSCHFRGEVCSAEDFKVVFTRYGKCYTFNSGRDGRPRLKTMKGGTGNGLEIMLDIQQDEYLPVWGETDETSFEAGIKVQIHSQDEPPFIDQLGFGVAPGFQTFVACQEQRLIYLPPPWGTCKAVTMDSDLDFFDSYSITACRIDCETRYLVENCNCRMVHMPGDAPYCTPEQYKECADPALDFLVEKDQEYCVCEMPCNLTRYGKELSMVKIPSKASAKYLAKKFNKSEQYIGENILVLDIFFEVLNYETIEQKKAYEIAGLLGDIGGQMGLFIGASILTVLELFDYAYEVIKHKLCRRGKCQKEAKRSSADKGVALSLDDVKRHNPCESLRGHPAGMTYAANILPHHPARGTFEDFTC

T2: chicken acid-sensing ion channel 1 (cASIC1), full-length (chicken, UniProt Q1XA76 1-527)
T2 sequence (looked up): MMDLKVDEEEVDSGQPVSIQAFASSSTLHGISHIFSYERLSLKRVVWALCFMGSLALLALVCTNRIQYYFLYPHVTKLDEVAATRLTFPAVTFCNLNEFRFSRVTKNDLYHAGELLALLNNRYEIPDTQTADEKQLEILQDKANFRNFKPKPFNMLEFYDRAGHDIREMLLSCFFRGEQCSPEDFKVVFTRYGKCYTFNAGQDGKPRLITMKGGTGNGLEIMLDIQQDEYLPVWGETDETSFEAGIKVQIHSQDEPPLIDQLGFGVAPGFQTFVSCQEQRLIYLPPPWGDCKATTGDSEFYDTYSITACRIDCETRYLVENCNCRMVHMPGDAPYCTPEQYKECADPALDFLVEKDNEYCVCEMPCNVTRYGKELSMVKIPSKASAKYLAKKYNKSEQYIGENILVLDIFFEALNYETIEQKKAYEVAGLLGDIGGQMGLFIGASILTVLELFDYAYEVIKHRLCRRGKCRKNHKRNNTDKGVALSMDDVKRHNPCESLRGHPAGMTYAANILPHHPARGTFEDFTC

B1: truncated human acid-sensing ion channel 1a with the 60 carboxyl terminal residues removed (hASIC1a^ΔC) (domain or fragment)
chain: MELKAEEEEVGGVQPVSIQAFASSSTLHGLAHIFSYERLSLKRALWALCFLGSLAVLLCVCTERVQYYFHYHHVTKLDEVAASQLTFPAVTLCNLNEFRFSQVSKNDLYHAGELLALLNNRYEIPDTQMADEKQLEILQDKANFRSFKPKPFNMREFYDRAGHDIRDMLLSCHFRGEVCSAEDFKVVFTRYGKCYTFNSGRDGRPRLKTMKGGTGNGLEIMLDIQQDEYLPVWGETDETSFEAGIKVQIHSQDEPPFIDQLGFGVAPGFQTFVACQEQRLIYLPPPWGTCKAVTMDSDLDFFDSYSITACRIDCETRYLVENCNCRMVHMPGDAPYCTPEQYKECADPALDFLVEKDQEYCVCEMPCNLTRYGKELSMVKIPSKASAKYLAKKFNKSEQYIGENILVLDIFFEVLNYETIEQKKAYEIAGLLGDIGGQMGLFIGASILTVLELFDYAYEVIKHKLCRR
notes: Trimer in the cryo-EM structures; […]; also called apo-hASIC1a^ΔC

Columns and labels:
[1] = target: B1; assay: cryo-EM structure; hASIC1a^ΔC-Mamba1 complex, toxin added in a 6:1 molar ratio of toxin to channel, 1 hr at 4°C, 20 mM Tris pH 8.0, 200 mM NaCl, 0.05% DDM, 0.01% CHS; 3.1 mg/ml; 3.90 Å; details: both partners purified
[2] = target: T1, human acid-sensing ion channel 1a …; assay: cell-based or functional assay
[3] = target: T2, chicken acid-sensing ion channel 1 …; assay: cell-based or functional assay
[4] = target: the molecule itself; assay: cryo-EM structure; apo-hASIC1a^ΔC, single-particle cryo-EM, 2.7 mg/ml, 20 mM Tris pH 8.0, 200 mM NaCl, 0.05% DDM, 0.01% CHS; C3 symmetry imposed; 3.56 Å

Binder | stoichiometry N [1] | IC50 of inhibition of acid-evoked (pH 6.0) currents, whole-cell patch clamp, full-length hASIC1a in CHO cells [2] | IC50 of inhibition of full-length hASIC1a in CHO cells ('the reported IC50', Figure 1b) [2] | IC50 of inhibition of acid-evoked (pH 6.0) currents, whole-cell patch clamp, full-length cASIC1 in CHO cells [3] | stoichiometry N [4]
Mambalgin1 (Mamba1) (also called wild-type Mamba1) LKCYQHGKVVTCHRDMKFCYHNTGMPFRNLKLILQGCSSSCSETENNKCCSTDRCNK | 1 Mamba1 per hASIC1a^ΔC subunit | 197 nM | 149 nM | 124 nM | 
B1 |  |  |  |  | 3
